We go through ten molecules from patent US20220098306A1 (published 2022).

Changes are numbered by the printed parent chain. Read-outs that look alike come from different tables or passages of the source.

As usually defined, the Kd is a measure of binding affinity in units of concentration. The low end stands for tighter binding, the high end for weaker binding.

Experiment [1] deals with T1, CD28-Fc-His protein (human, UniProt P10747 19-152). The experiment can be described thus: Octet; 1:1 Langmuir. In general terms: BLI is a label-free optical method that tracks binding on a fibre tip over time.
Experiment [2] deals with T1, CD28-Fc-His protein. Kind of experiment: Octet; Steady State.
The target in the next experiment is T2, huB7H3 (V1C1).
T2 chain: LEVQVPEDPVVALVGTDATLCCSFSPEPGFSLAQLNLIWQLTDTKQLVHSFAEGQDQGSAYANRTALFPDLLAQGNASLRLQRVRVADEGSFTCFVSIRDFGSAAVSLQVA
Kind of experiment: Octet.

The target in a further experiment is T3, huB7H3 (V2C2).
T3 chain: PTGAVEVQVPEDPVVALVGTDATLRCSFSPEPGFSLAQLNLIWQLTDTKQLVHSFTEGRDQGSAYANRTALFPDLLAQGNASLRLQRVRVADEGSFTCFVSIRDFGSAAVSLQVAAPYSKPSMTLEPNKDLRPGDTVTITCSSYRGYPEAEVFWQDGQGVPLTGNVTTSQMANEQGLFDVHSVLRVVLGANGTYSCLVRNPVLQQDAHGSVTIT
The experiment can be described thus: Octet.

Experiment [3] concerns the target T4, mouse Fc fusion of B7H3, full extracellular V1C1-V2C2 domain (human, UniProt Q5ZPR3 29-466).
T4 chain: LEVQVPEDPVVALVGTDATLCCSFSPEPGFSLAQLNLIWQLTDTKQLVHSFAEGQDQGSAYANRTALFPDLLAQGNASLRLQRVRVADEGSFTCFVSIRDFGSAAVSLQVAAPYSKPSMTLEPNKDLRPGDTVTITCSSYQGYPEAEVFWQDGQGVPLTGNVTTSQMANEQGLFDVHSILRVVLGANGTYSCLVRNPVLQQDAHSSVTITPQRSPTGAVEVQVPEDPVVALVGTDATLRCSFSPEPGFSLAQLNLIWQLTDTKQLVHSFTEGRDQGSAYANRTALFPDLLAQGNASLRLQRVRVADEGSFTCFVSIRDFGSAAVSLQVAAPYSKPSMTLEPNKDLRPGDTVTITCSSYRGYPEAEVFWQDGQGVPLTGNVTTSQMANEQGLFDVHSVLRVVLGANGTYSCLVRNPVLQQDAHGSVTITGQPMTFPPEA
The experiment can be described thus: Octet.

The target of experiment [4] is T5, CD28 (antigen of the affinity determinations) (human, UniProt P10747 19-152). Kind of experiment: -; scFv VHVL, 1+1 Fab-scFv-Fc.
Experiment [5] addresses T5, CD28 (antigen of the affinity …). Kind of experiment: Octet; avid.
The target is the same in experiment [6]. The experiment can be described thus: -; Fab, 2+1 CLC.
The target in experiment [7] is T6, B7H3 (antigen of the affinity statements) (human, UniProt Q5ZPR3 29-466).
T6 chain: T4 chain
Kind of experiment: -; monovalent KD.

The target in experiment [8] is T5, CD28 (antigen of the affinity …).

B1: XENP34389 (bispecific antibody)
heavy 1: EVQLLESGGGLVQPGGSLRLSCAASGFTFSNYYMAWVRQAPGKGLEWVSSISTGGGSTYYRDSVKGRFTISRDNSKSTLYLQMNSLRAEDTAVYYCTTDLSAIAATPFAYWGQGTLVTVSSASTKGPSVFPLAPSSKSTSGGTAALGCLVKDYFPEPVTVSWNSGALTSGVHTFPAVLQSSGLYSLSSVVTVPSSSLGTQTYICNVNHKPSDTKVDKKVEPKSCDKTHTCPPCPAPPVAGPSVFLFPPKPKDTLMISRTPEVTCVVVDVKHEDPEVKFNWYVDGVEVHNAKTKPREEEYNSTYRVVSVLTVLHQDWLNGKEYKCKVSNKALPAPIEKTISKAKGQPREPQVYTLPPSREEMTKNQVSLTCDVSGFYPSDIAVEWESDGQPENNYKTTPPVLDSDGSFFLYSKLTVDKSRWEQGDVFSCSVMHEALHNHYTQKSLSLSPGK
heavy 2: not shown
light: DIQMTQSPSSLSASVGDRVTITCRASQNIYTSLAWYQQKPGKAPKLLIYNAHSLQTGIPSRFSGSGSGADFTLTISSLQPEDFATYFCQQYYSGLTFGSGTKLEIKRTVAAPSVFIFPPSDEQLKSGTASVVCLLNNFYPREAKVQWKVDNALQSGNSQESVTEQDSKDSTYSLSSTLTLSKADYEKHKVYACEVTHQGLSSPVTKSFNRGEC
On to B1, for which the dissociation constant (Kd) with CD28-Fc-His protein [1] was 790 nM; in the experiment with CD28-Fc-His protein [2] it was 560 nM.

B2: XENP34728 (6A1) (antibody, V domains shown)
VH: EVQLLESGGGLVQPGGSLRLSCAASGFTFSNYYMAWVRQAPGKGLEWVSSISTGGGSTYYRDSVKGRFTISRDNSKSTLYLQMNSLRAEDTAVYYCTTDLSAIAATPFAYWGQGTLVTVSS
VL: DIQMTQSPSSLSASVGDRVTITCRASQNIYTSLAWYQQKPGKAPKLLIYNAHSLQTGIPSRFSGSGSGADFTLTISSLQPEDFATYFCQQYYSGLTFGSGTKLEIKR
Regarding B2, the equilibrium dissociation constant (Kd) with huB7H3 (V1C1) was found to be 4.4 nM; with huB7H3 (V2C2) it was 6.4 nM; in experiment [3], 4.3 nM.

B3: H1_L1.71 (antibody, V domains shown)
VH: EVQLLESGGGLVQPGGSLRLSCAASGFTFSSYAMSWVRQAPGKGLEWVSTISGSGDSTYYADSVKGRFTISRDNSKNTLYLQMNSLRAEDTAVYYCAKSGPGLRQVGFDYWGQGTLVTVSS
VL: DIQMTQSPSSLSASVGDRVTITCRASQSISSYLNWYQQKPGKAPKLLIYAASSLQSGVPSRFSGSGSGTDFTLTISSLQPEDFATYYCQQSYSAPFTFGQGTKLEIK
As for B3, the Kd in [4] came out at 180 nM.

B4: XENP28428 (antibody, V domains shown)
VH: B3 VH
VL: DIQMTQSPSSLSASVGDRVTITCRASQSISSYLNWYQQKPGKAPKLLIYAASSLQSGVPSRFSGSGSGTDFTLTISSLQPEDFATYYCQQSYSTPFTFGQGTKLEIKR
Take B4: binding in experiment [5] was put at a Kd of 14.5 nM.

B5: H1.1_L1.71 (antibody, V domains shown)
VH: B3 VH with A33Y
VL: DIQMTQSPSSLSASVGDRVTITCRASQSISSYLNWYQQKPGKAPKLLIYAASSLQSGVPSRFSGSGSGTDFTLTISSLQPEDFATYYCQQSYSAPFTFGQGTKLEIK
The molecule B5 registered a dissociation constant Kd in experiment [4] of 91.6 nM.

B6: XENP34717 (bispecific antibody)
heavy 1: EVQLLESGGGLVQPGGSLRLSCAASGFTFSSYYMSWVRQAPGKGLEWVSTISESGDSTYYADSVKGRFTISRDNSKNTLYLQMNSLRAEDTAVYYCAKSGPGLRQVGFDYWGQGTLVTVSSASTKGPSVFPLAPSSKSTSGGTAALGCLVKDYFPEPVTVSWNSGALTSGVHTFPAVLQSSGLYSLSSVVTVPSSSLGTQTYICNVNHKPSDTKVDKKVEPKSCDKTHTCPPCPAPPVAGPSVFLFPPKPKDTLMISRTPEVTCVVVDVKHEDPEVKFNWYVDGVEVHNAKTKPREEEYNSTYRVVSVLTVLHQDWLNGKEYKCKVSNKALPAPIEKTISKAKGQPREPQVYTLPPSREEMTKNQVSLTCDVSGFYPSDIAVEWESDGQPENNYKTTPPVLDSDGSFFLYSKLTVDKSRWEQGDVFSCSVMHEALHNHYTQKSLSLSPGK
heavy 2: QVQLVQSGAEVKKPGASVKVSCKASGYIFTNNYMHWVRQAPGQGLEWMGIISPSVGRTAYAQKFQGRVTMTRDTSTSTVYMELSSLRSEDTAVYYCARGGGSSPRLDYWGQGTLVTVSSASTKGPSVFPLAPSSKSTSGGTAALGCLVKDYFPEPVTVSWNSGALTSGVHTFPAVLQSSGLYSLSSVVTVPSSSLGTQTYICNVNHKPSNTKVDKKVEPKSCDKTHTCPPCPAPPVAGPSVFLFPPKPKDTLMISRTPEVTCVVVDVKHEDPEVKFNWYVDGVEVHNAKTKPREEQYNSTYRVVSVLTVLHQDWLNGKEYKCKVSNKALPAPIEKTISKAKGQPREPQVYTLPPSREQMTKNQVKLTCLVKGFYPSDIAVEWESNGQPENNYKTTPPVLDSDGSFFLYSKLTVDKSRWQQGNVFSCSVMHEALHNHYTQKSLSLSPGK
light: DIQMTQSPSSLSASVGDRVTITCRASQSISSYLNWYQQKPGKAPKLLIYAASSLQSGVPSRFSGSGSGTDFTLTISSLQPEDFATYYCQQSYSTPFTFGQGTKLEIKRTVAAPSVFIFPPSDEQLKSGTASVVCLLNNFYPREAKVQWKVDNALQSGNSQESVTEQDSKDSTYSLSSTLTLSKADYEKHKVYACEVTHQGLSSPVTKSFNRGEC
As for B6, the Kd with huB7H3 (V1C1) amounted to 21 nM; with huB7H3 (V2C2), 21 nM; in [3] it was 16 nM.

B7: XENP34339 (bispecific antibody)
heavy 1: B6 heavy 1
heavy 2: QVQLVQSGAEVKKPGASVKVSCKASGYIFTNNYMHWVRQAPGQGLEWMGIISPSVGRTAYAQKFQGRVTMTRDTSTSTVYMELSSLRSEDTAVYYCARGGGSSPRLDYWGQGTLVTVSSASTKGPSVFPLAPSSKSTSGGTAALGCLVKDYFPEPVTVSWNSGALTSGVHTFPAVLQSSGLYSLSSVVTVPSSSLGTQTYICNVNHKPSNTKVDKKVEPKSCGKPGSGKPGSQVQLVQSGAEVKKPGASVKVSCKASGYIFTNNYMHWVRQAPGQGLEWMGIISPSVGRTAYAQKFQGRVTMTRDTSTSTVYMELSSLRSEDTAVYYCARGGGSSPRLDYWGQGTLVTVSSASTKGPSVFPLAPSSKSTSGGTAALGCLVKDYFPEPVTVSWNSGALTSGVHTFPAVLQSSGLYSLSSVVTVPSSSLGTQTYICNVNHKPSNTKVDKKVEPKSCDKTHTCPPCPAPPVAGPSVFLFPPKPKDTLMISRTPEVTCVVVDVKHEDPEVKFNWYVDGVEVHNAKTKPREEQYNSTYRVVSVLTVLHQDWLNGKEYKCKVSNKALPAPIEKTISKAKGQPREPQVYTLPPSREQMTKNQVKLTCLVKGFYPSDIAVEWESNGQPENNYKTTPPVLDSDGSFFLYSKLTVDKSRWQQGNVFSCSVMHEALHNHYTQKSLSLSPGK
light: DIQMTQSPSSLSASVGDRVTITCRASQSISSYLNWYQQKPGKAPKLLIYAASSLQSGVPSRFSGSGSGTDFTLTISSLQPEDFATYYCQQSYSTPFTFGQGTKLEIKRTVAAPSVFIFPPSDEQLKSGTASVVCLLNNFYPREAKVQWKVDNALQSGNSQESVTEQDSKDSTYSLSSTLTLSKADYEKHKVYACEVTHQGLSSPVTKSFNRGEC
For B7, the dissociation constant (Kd) in the experiment with CD28-Fc-His protein [1] was 96 nM; with CD28-Fc-His protein [2] it was 150 nM.

B8: XENP37810 (bispecific antibody)
heavy 1: B6 heavy 1 with M431L, N437S
heavy 2: B7 heavy 2 with N32H, V55A, R57S, A59D, N264H, V287A, R289S, A291D, M661L, N667S
light: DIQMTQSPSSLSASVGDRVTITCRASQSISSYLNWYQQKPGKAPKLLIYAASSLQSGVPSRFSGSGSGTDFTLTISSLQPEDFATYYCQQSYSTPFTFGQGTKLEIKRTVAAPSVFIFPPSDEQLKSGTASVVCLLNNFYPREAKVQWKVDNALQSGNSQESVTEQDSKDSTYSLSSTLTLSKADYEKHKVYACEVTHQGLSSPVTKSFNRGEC
On to B8, for which the dissociation constant (Kd) in experiment [6] was 200 nM.

B9: XENP37808 (bispecific antibody)
heavy 1: B6 heavy 1 with E53G, M431L, N437S
heavy 2: B7 heavy 2 with M661L, N667S
light: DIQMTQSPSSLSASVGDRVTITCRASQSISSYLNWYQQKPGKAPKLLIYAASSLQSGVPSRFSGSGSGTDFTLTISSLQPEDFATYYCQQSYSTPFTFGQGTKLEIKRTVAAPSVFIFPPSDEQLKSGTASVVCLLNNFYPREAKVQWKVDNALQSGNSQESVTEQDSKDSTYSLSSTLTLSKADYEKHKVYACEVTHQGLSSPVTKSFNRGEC
For the molecule B9, the results for the Kd in experiment [6], in experiment [7] and in experiment [8] were 232 nM, 7.6 nM and 230 nM, respectively.

B10: human B7H3 (V1C1-V2C2) (ligand)
chain: T4 chain
In the experiment with 4F12_H2_L1.1, B10 showed an equilibrium dissociation constant (Kd) of less than 0.1 nM.
